Test results as given in patent US20220356229A1.

Molecular target: SARS-CoV-2 full length Spike protein, wild type, expressed on the surface of transiently transfected CHO cells (SARS-CoV-2), P0DTC2
Settings: remark: other sources report otherwise

B1: antibody 262 (antibody, V domains shown)
VH: QVQLVESGGGVVQPGRSLRLSCAASGFTFSSYAMHWVRQAPGKGLEWVAVISYDGSNKYYADSVKGRFTISRDNSKNTLYLQMNSLRAEDTAVYYCARDGGELLWFGELDYYGMDVWGQGTTVTVSS
VL: SYELTQPSSVSVSPGQTARITCSGDVLAKKYARWFQQKPGQAPVLVIYKDSERPSGIPERFSGSSSGTTVTLTISGAQVEDEADYYCYSAADNNRGVFGGGTKLTVL
  median fluorescence intensity, fold over isotype control (fold over isotype): 0.89
